We go through 1 molecule from patent US20240116923A1, “USE OF INDOLE, 6- AND 7-AZAINDOLE DERIVATIVES AS INHIBITORS OF FERROPTOSIS REGULATED CELL DEATH” (Seabelife, priority 2021, published 2024).

This experiment has as its system Rat dopaminergic neurons. The experiment in a line: Protective effect after 6-OHDA injury on rat primary dopaminergic neurons survival (TH staining). It is filed as cell-based. Conditions: 50 ng/mL, 1 h pre-treatment, 6-OHDA 20 μM 2 days (6-OHDA alone 48%), p<0.0001. How it is done:
As explained in Ding et al., J Neurochem., 2004, (89), administration of 6-Hydroxydopamine (6-OHDA), a neurotoxin, has been widely used to cause the selective degeneration of dopamine (DA) neurons in in vitro and in vivo models. These models are used as Parkinson's disease models, which is characterized by the progressive loss of DA neurons of the substantia nigra.
Rat dopaminergic neurons were cultured as described by Schinelli et al., J Neurochem., 1988, 50(6). The cells were seeded at a density of 40 000 cells/well in 96 well-plates (precoated with poly-D-lysine; Greiner, Ref: 655940, Batch: E20093UL) and were cultured at 37° C. in a humidified air (95%)/CO2 (5%) atmosphere. Half of the medium was changed every 2 days with fresh medium. In these conditions, after 5 days of culture, astrocytes are present in the culture and release growth factor allowing neurons differentiation. In this condition, 2 to 5% of neurons are dopaminergic neurons.
6-OHDA (Sigma, Ref: 162957, Batch MKCK5243) was reconstituted in define culture medium at 40 μM (stock solution). The control medium was prepared in the same conditions. After 7 days of culture, primary mesencephalic neurons were pre-treated for 1 hour with test compounds or reference compound (BDNF, 50 ng/mL) and then intoxicated with 6-OHDA at a final concentration of 20 μM for 2 days incubation in order to induce a neuronal cell death of about 50%+/−5%.
After 2 days of intoxication in presence or absence of test compounds, cells were fixed by a solution of 4% paraformaldehyde (Sigma, ref 6148, Batch: SZBE2390V) for 20 min at room temperature, the control conditions were fixed as well following the same procedure. The cells were then permeabilized and nonspecific sites were blocked with a solution of phosphate buffered saline (PBS; PanBiotech; ref: P04-36500, Batch: 7701020) containing 0.1% of saponin (Sigma; ref: S7900, Batch: BCBL8667V) and 1% FCS for 15 min at room temperature. Cells were incubated with a mouse monoclonal anti-Tyrosine Hydroxylase (TH, 1/10 000, Sigma; ref: T1299, Batch: 014M4835) antibody in a solution of PBS overnight at 4° C. Antibody against TH stained dopaminergic neurons. […] Nuclei of cells were labelled by a fluorescent marker (Hoechst, Sigma; ref: B1155, Batch: 046M4048V) in the same solution. For each condition, 20 pictures per well were taken using InCell Analyzer™ 2200 (GE Healthcare) with 20× magnification. Images of each culture well were taken in same condition. Analysis of cell bodies of TH positive neurons was performed using Developer software (GE healthcare). A total of 6 data per experimental condition were provided.

B1: BDNF: Brain Derived Neurotrophic Factor, reference compound at 50 ng/mL (protein, UniProt P23560 19-247, looked up)
Neurotrophic factor BDNF …: APMKEANIRGQGGLAYPGVRTHGTLESVNGPKAGSRGLTSLADTFEHVIEELLDEDQKVRPNEENNKDADLYTSRVMLSSQVPLEPPLLFLLEEYKNYLDAANMSMRVRRHSDPARRGELSVCDSISEWVTAADKKTAVDMSGGTVTVLEKVPVSKGQLKQYFYETKCNPMGYTKEGCRGIDKRHWNSQCRTTQSYVRALTMDSKKRIGWRFIRIDTSCVCTLTIKRGR
B1: the “cellular death of dopaminergic neurons after 6-OHDA injury” value is on record as 15%.
